The values that follow come from the nanobody polyreactivity screen of Harvey et al. (2022).

This series can be described thus: yeast display, Sf9 membrane polyspecificity reagent, FACS + sequencing; frameworks hold sequencing errors. In outline: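 Nanobodies came from a synthetic yeast display library in Saccharomyces cerevisiae BJ5465, induced with galactose for 36–48 hours and stained for 1 hour at 4 °C with 10% biotinylated, detergent-solubilized Sf9 membrane reagent. Cells were enriched on streptavidin microbeads and then FACS-sorted, with low and high (top ~1%) gates set on anti-HA fluorescence for expression and streptavidin fluorescence for reagent binding. Each polyreactivity label reflects the gate a clone came from. Genes were amplified by colony PCR, sequenced by MiSeq 2 × 250 and filtered by CDR length.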
Consider “QVQLVESGGGLVQAGGSLRLSCAASGSTLGYYVMGWYRQAPGKERELVAAITGGGSTDYADSVKGRFTISRDNEKNTVYLQMNSLKPEDTAVYYCAAERTRTGQLFWWGPIYDYWGQGTQVTVSS”, for which the “polyreactivity (PSR sort gate)” value is “low polyreactivity”. The value for “QVQLVESGGGLVQAGGSLRLSCAASGSTLHSYAMGWYRQAPGKERELVAAISFRGGSTYADSVKGRFTISRDNAKNTVYLQMNSLKPEDTAVYYCAAYSVYTMYWGQGTQVTVSS” was “low polyreactivity”. The value for “QVQLVESGGGLVQAGGSLRLSCAASGSTLLYYAMGWYRQAPGKERELVAAISSTGSTNYADSVKGRFTISRDNAKNTVYLQMKSLKPEDTAVYYCAADYSVPTSQAYDYWGQGTQVTVSS” was “low polyreactivity”; that for “QVQLVESGGGLVQAGGSLRLSCAASGSTLNRNVMGWYRQAPGKERELVAVITYGVGSTYYADSVKGRFTISRDNAKNTVYLQMNSLKPEDTAVYYCNKDPLVFDYWGQGTQVTVSS” was “low polyreactivity”. Next, “QVQLVESGGGLVQAGGSLRLSCAASGSTLNRYAMGWYRQAPGKERELVAAINGSGGSTYYADSVKGRFTISRENAKNTVYLLINSLKQEDSAVYYCAAYGYSFAYGAYGYWGQGTQVTVSS”: “high polyreactivity”; “QVQLVESGGGLVQAGGSLRLSCAASGSTLPANAMGWYRQAPGKERELVAAITITTDGSTYYADSVKGRFTISRDNAKNTVYLQLNSLKPEDTAVYYCAVARYRYHIRKMGYWGQGTQVTVSS”: “low polyreactivity”; “QVQLVESGGGLVQAGGSLRLSCAASGSTLPFNAMGCYRQAPGKERELVAAISSGSSTNYADSVKGRFTISRDNAKNTVYLKMNSLKPEDTAVYYCNARPRANQLGDYYKPGTYDYWGQGTQVTVSS”: “low polyreactivity”. For “QVQLVESGGGLVQAGGSLRLSCAASGSTLPVYAMGWYRQAPGKERELVATITDTGITNYADSVKGRFTLSRDNAKNTVYLQMNSLKPEDTAVYYCAVDSTGVWPYQVGYAPYDYWGQGTQVTVSS”, the “polyreactivity (PSR sort gate)” value is recorded as “low polyreactivity”. Next, “QVQLVESGGGLVQAGGSLRLSCAASGSTLQDNAMGWYRQAPGKDRELVAAITTGSTTYADSVKGRFTISRDNAKNTVYIQMNSLKPEDTAVYYCAADSEEYDGYTWWVFKFDYWGQGTQVTVSS”: “low polyreactivity”; “QVQLVESGGGLVQAGGSLRLSCAASGSTLQDNAMGWYRQAPGKERELVAAITTGSTTYADSVKGRFTISRDNAKNTVYLQMNSLKPEDTAVYYCNARVDWGWPGYEYDYWGQGTQVTVSS”: “low polyreactivity”. On to “QVQLVESGGGLVQAGGSLRLSCAASGSTLQGYAMGWYRQAPGKERELVAAISRSGGSTYYADSVKGRFTISRDNAKNTVYLQMNSLKPEDTAVYYCNRVAGGRRKGPWSYQYDYWGQGPQVTVSS”, for which the “polyreactivity (PSR sort gate)” value is reported as “high polyreactivity”. Next, “QVQLVESGGGLVQAGGSLRLSCAASGSTLRAYAMGWYRQAPGKERELVAGITSGGRTNYADSVKGRFTISRDNAKNTVYLQMNSLKPEDTAVYYCATDRFSHYYFLYDYWGQGTQVTVSS”: “low polyreactivity”. Next, “QVQLVESGGGLVQAGGSLRLSCAASGSTLRAYAMGWYRQAPGKERELVATITRGARTNYADSVKGRFTISRDNAKNTVYLQMNSLKPEDTAVYYCAARSYGSQLSRQVYYWGQGTQVTVSS”: “high polyreactivity”; “QVQLVESGGGLVQAGGSLRLSCAASGSTLRFYAMGWYRPAPGKERELVAAISSSGSSTYYADSVKGRFTISRDNAKNTVYLQLNSLKPEDTAVYYCSGYGYWGQGTQVTVSS”: “high polyreactivity”. Regarding “QVQLVESGGGLVQAGGSLRLSCAASGSTLRFYAMGWYRQAAGKERELVADITYRGGSTYYADSVKGRFTISRDNAKNTVYLQMNSLKPEDTAVDYCAKQRSYSSKFDYWGQGSQVTVSS”, the “polyreactivity (PSR sort gate)” value was “high polyreactivity”. Next, “QVQLVESGGGLVQAGGSLRLSCAASGSTLRRYAMGWYRQAPGKERELVAAISGTGSRTYYADSVNGRFTISRDNAKNTDYLQMNSLKPEDTAVYYCNASQYRLTENDYWGQGTQVNVSS”: “high polyreactivity”; “QVQLVESGGGLVQAGGSLRLSCAASGSTLRTNAMGWYRQAPGKERELVAAISSSAGSTYYADSVKGRFTISRDNAKNTVYLQMNSLKQEDTAVYYCAKQPGSAYGYWGQGTQVTVSS”: “high polyreactivity”; “QVQLVESGGGLVQAGGSLRLSCAASGSTLRVNAKGWYRQAPGKERELVAAISYRGGSTYYADSVKGRFTISRDNAKNTVYLQMNSLKPEDTAVYYCAAKQGATRGYYYWGQGTQVTVSS”: “high polyreactivity”. “QVQLVESGGGLVQAGGSLRLSCAASGSTLRWYAMGWYRQAPGKERELVARISWTTGSTYYADSVKGRFTISRDNAKNTVYLQMNSLKPEDTAVYYCAKGKKSSRSGIYNYWGQGTQVTVSS”: the “polyreactivity (PSR sort gate)” value is “high polyreactivity”. Take “QVQLVESGGGLVQAGGSLRLSCAASGSTLRWYTMGWYRQAPGKESELVATNSRGGTTNYADSVKGRFTISRDNAKNTVYLQMNSLKPEDTAVYYCASRDFWWSRRIFGYWGQGTHVTVSS”: the “polyreactivity (PSR sort gate)” value is recorded as “high polyreactivity”. Next, “QVQLVESGGGLVQAGGSLRLSCAASGSTLRYYAMGWYRQAPGKERELVARIRSNGGSTYYADSVKGRFTISRDNAKNTVYLQMNSLKPEDSAVYYCAARTYRGQYYTGFGFGYWGQGTQVTVSS”: “high polyreactivity”. As to “QVQLVESGGGLVQAGGSLRLSCAASGSTLSAYVMGWYRQAPGKERELVAAISQSADSTYYADSVKGRFTILRDNAKNTVYLQMNSLKPEDTAVYYCAAEYPYIYRFDYWGQGTQVTVSS”, the “polyreactivity (PSR sort gate)” value is on record as “low polyreactivity”. The value for “QVQLVESGGGLVQAGGSLRLSCAASGSTLSDNAMGWYRQAPGKERELVARISGDGSTNYADSVKGRFTISRDNAKNTVYLQMNSLKPDDTAVYYCNAGTAGIYYYGKSDYWGQGTQVTVSS” was “low polyreactivity”; that for “QVQLVESGGGLVQAGGSLRLSCAASGSTLSENVMGWYRQAPGKERELVATISYSGDSTYYADSVKGRFTISRDNAKNTVYLQMNSLIPEDTAVYYCNADHFVTVGQFDWYDSWGQGTQVTVSS” was “low polyreactivity”. The value for “QVQLVESGGGLVQAGGSLRLSCAASGSTLSKYGMGRYRQAPGKERELVAAISYSSGSTYYADSVKGRFTISRDNAKNSVYLQMNSLKPEDTAVYYGAADRFRRLHYWTYDYWGQGTQVTVSS” was “high polyreactivity”.

For the sequence “QVQLVESGGGLVQAGGSLRLSCAASGSTLSRYAMGWYRQAPGKERELVAAISRRGGSTFYADSVKGRFTISRDNAKNTVYLQRNSLKPEDTAVYYCAALSNHGYYIRMDYWGQGTQVTVSS”, the “polyreactivity (PSR sort gate)” value was “high polyreactivity”. Next, “QVQLVESGGGLVQAGGSLRLSCAASGSTLSRYAMGWYRQAPGKERELVAAISWSGGRTYYADSVKGRFTISRDYAKNTVYLQMNSLKPEDTAVYYCAARYGYRTPDGDYWGQGTQVTVSS”: “high polyreactivity”; “QVQLVESGGGLVQAGGSLRLSCAASGSTLTFNAMGWYIQAPGKERELVAAISWSDTDTYYADSVKGRFTISRDNAKNTVYLQMNSLKPEDTAVYYCAATLSAYEMDYWGQATQVTVSS”: “low polyreactivity”; “QVQLVESGGGLVQAGGSLRLSCAASGSTLTFNAMGWYRQAPWKERELVAAISWSDTDTYYADSVKGRFTISRDNAKNTVYLQMNSLKPEDTAVYYCAATLSAYEMDYWGQATQVTVSS”: “low polyreactivity”. On to “QVQLVESGGGLVQAGGSLRLSCAASGSTLTRNDMGWYRQAPGKERELVAAITFSGSDTYYADSVKGRFTISRDNANNTVYLQMNSLKPEDTAVYYCAAEYGGYEYDQWGQGTQVTVSS”, for which the “polyreactivity (PSR sort gate)” value is “low polyreactivity”. The value for “QVQLVESGGGLVQAGGSLRLSCAASGSTLTVNVMGWYRHAPGKEREFVAAINDSGSTYYADSVKGRFTISRDNAKNTVYLQMNSLKPEDTAVYYCATYYWVGLSLYDYWGQGTQVTVSS” was “low polyreactivity”. The value for “QVQLVESGGGLVQAGGSLRLSCAASGSTLVAYAMGWYRQAPGKERELVAAISRSGGNTYYADSVKGRFTISRDNAKNTVYFQMISLKPEDTAVYYCAAVRLYRYDYWGQCTQVTVSS” was “low polyreactivity”.

With “QVQLVESGGGLVQAGGSLRLSCAASGSTLVDYAMGWYRQAPGKERQLVAAITSGGSTNYADSVMGRFTISRDNAKKTVYLQMNSLKPEDTAVYYCAAEWQRGLQAEYYYWGQGTKVTVSS”, the “polyreactivity (PSR sort gate)” value is listed as “low polyreactivity”. Regarding “QVQLVESGGGLVQAGGSLRLSCAASGSTLVGNAMGWYRQAPGKEMELVAVISYRGGSTYYADSVKGRFTISRDNAKNTVYLQMNSLKPEDTAVYDCAARYYRNPVFVIMDYWGQGTQVTVSS”, the “polyreactivity (PSR sort gate)” value is listed as “high polyreactivity”. The value for “QVQLVESGGGLVQAGGSLRLSCAASGSTLVGNAMGWYRQAPGKERELVAAISSSGTSTYYADSVKGRFTISRDNAKNTVYLQMNSLKPEDTAVYYCAAYVYGVGMDYWGQGTQVTVSS” was “high polyreactivity”; that for “QVQLVESGGGLVQAGGSLRLSCAASGSTLVGNTMGCYRQSPGKERELVAAITGVGSTNYADSVKGRFTISRDNAKNTVYLQMNSLKPEDTAVYYCAAQYSYTYIVSYLYDMDYWGQGTQVTVSS” was “low polyreactivity”; that for “QVQLVESGGGLVQAGGSLRLSCAASGSTLVRYAMGWYRQAPGKERELVAAISGSGGSTFYADSVKGRFTISRDNAKNSVYLQMNSLKPEDTAVYYCAARYYWYGRAGNKHASYYYWGQGTQVTVSS” was “high polyreactivity”. On to “QVQLVESGGGLVQAGGSLRLSCAASGSTLVVNGMGWYRQAPGKERELVASISSDGSTNYADSVKGRFTISRDNAKNTVYLQMNSLKPEDTAVYYCASDEGTGQASLSSNLYDYWGQGTQVTVSS”, for which the “polyreactivity (PSR sort gate)” value is “low polyreactivity”.

For the sequence “QVQLVESGGGLVQAGGSLRLSCAASGSTLVVYAMGRYRQAPGIERELVAAISSIGGRPYYADSVKGRFTISRDNAKYTVYLQMNSLKPEDTAVYYCTALRYVVYFDDDYWGQGTQVTVSS”, the “polyreactivity (PSR sort gate)” value was “high polyreactivity”.

For “QVQLVESGGGLVQAGGSLRLSCAASGSTLYANAMGWYRQAPGKEMALVAAITRTGGNTYYADSVKGRFTISRDNAKNTVYFQMNSLKPEDTAVYYCAARNPPTDHTGYQSSVLPGRYYWGQGTQVTVSS”, the “polyreactivity (PSR sort gate)” value was “low polyreactivity”. Turning to “QVQLVESGGGLVQAGGSLRLSCAASGSTLYGYAMGWYRQAPGKERELVAAISVSGGRTYYADSVKGRFTISRDNAKNTVYLQMNSLKPEDTAVYYCAAYGTTRMDYWGQGTQVTVSS”, the “polyreactivity (PSR sort gate)” value was “high polyreactivity”.
